Reference: US20020031761A1, “Binding moieties for human parvovirus B19” (priority 1998, published 2002)
Positions of bridges follow the written chain, without caps; N, C: chain ends. No end group written: not given here.

B1: TN7 isolate A07 (peptide, not shown: large carriers)
peptide: FFCGFWHDCHP
modifications: disulfide 3-9 (inferred); also: displayed on M13 phage, coat protein fusion and flanking residues not given here
notes: Tested as phage isolate displaying the peptide (TN7 library)
B2: TN7 isolate D11 (peptide, not shown: large carriers)
peptide: LFCSFWYNCDA
modifications: disulfide 3-9 (inferred); also: displayed on M13 phage, coat protein fusion and flanking residues not given here
notes: as for B1
B3: TN7 isolate F12 (peptide, not shown: large carriers)
peptide: LFCSFWYNCDD
modifications: disulfide 3-9 (inferred); also: displayed on M13 phage, coat protein fusion and flanking residues not given here
notes: as for B1
B4: TN7 isolate H09 (peptide, not shown: large carriers)
peptide: LFCRFWYNCSA
modifications: disulfide 3-9 (inferred); also: displayed on M13 phage, coat protein fusion and flanking residues not given here
notes: as for B1
B5: TN7 isolate C11 (peptide, not shown: large carriers)
peptide: FFCQYWYNCD
modifications: disulfide 3-9 (inferred); also: displayed on M13 phage, coat protein fusion and flanking residues not given here
notes: Tested as phage isolate displaying the peptide (TN7 library); Last template position printed as '-' (10 residues)
B6: TN7 isolate E11 (peptide, not shown: large carriers)
peptide: FCRFWYGCHP
modifications: disulfide 2-8 (inferred); also: displayed on M13 phage, coat protein fusion and flanking residues not given here
notes: Tested as phage isolate displaying the peptide (TN7 library); First template position printed as '-' (10 residues)
B7: A01-TN8 phage isolate (peptide, not shown: large carriers)
peptide: FFCSFWHGGCDD
modifications: disulfide 3-10 (inferred); also: displayed on M13 phage, coat protein fusion and flanking residues not given here
notes: Tested as phage isolate displaying the peptide (TN8 library); The synthetic peptide form is a separate molecule; also called TN8 isolate A01
B8: TN8 isolate A05 (peptide, not shown: large carriers)
peptide: AFCHFWFHGCDD
modifications: disulfide 3-10 (inferred); also: displayed on M13 phage, coat protein fusion and flanking residues not given here
notes: Tested as phage isolate displaying the peptide (TN8 library)
B9: TN8 isolate D06 (peptide, not shown: large carriers)
peptide: HFCHFWFGGCPH
modifications: disulfide 3-10 (inferred); also: displayed on M13 phage, coat protein fusion and flanking residues not given here
notes: as for B8
B10: TN9 isolate D01 (peptide, not shown: large carriers)
peptide: FCWLWPSSDCF
modifications: disulfide 2-10 (inferred); also: displayed on M13 phage, coat protein fusion and flanking residues not given here
notes: Tested as phage isolate displaying the peptide (TN9 library)
B11: H03-TN9 phage isolate (peptide, not shown: large carriers)
peptide: FCWLWPAHSCH
modifications: disulfide 2-10 (inferred); also: displayed on M13 phage, coat protein fusion and flanking residues not given here
notes: Tested as phage isolate displaying the peptide (TN9 library); The synthetic peptide form is a separate molecule; also called TN9 isolate H03
B12: TN9 isolate E03 (peptide, not shown: large carriers)
peptide: FCHLWWPFQCA
modifications: disulfide 2-10 (inferred); also: displayed on M13 phage, coat protein fusion and flanking residues not given here
notes: as for B10
B13: TN9 isolate A06 (peptide, not shown: large carriers)
peptide: FCQLWWPFQCA
modifications: not fully specified (bridges); printed as Phe-Cys-Gln-Leu-Trp-Trp-Pro-Phe-Gln-Cys-Ala; cysteine pairing not given here
notes: Tested as phage isolate (TN9 library)
B14: TN7 isolate A12 (peptide, not shown: large carriers)
peptide: FSCLWFPFCPD
modifications: disulfide 3-9 (inferred); also: displayed on M13 phage, coat protein fusion and flanking residues not given here
notes: as for B1
B15: TN9 isolate F01 (peptide, not shown: large carriers)
peptide: LCPAHWQFWCD
modifications: disulfide 2-10 (inferred); also: displayed on M13 phage, coat protein fusion and flanking residues not given here
notes: as for B10
B16: TN7 isolate B11 (peptide, not shown: large carriers)
peptide: FFCALWPSCHH
modifications: disulfide 3-9 (inferred); also: displayed on M13 phage, coat protein fusion and flanking residues not given here
notes: as for B1
B17: TN7 isolate B12 (peptide, not shown: large carriers)
peptide: LFCHFWYNCDF
modifications: disulfide 3-9 (inferred); also: displayed on M13 phage, coat protein fusion and flanking residues not given here
notes: as for B1

Assays:
[1] = biological target: parvovirus B19 capsid proteins VP1-VP2 (Human parvovirus B19, UniProt P07299); assay: Batch depletion of B19 capsid proteins from solution by immobilized peptide affinity media, supernatant ELISA; format: binding; conditions: peptide immobilized on formyl 750-M resin; 1 hour at room temperature; compared with blank media; ELISA at 5-minute time point
Description: The two peptide ligands were immobilized on an aldehyde-functional methacrylate resin support (TosoHaas formyl 750-M; Montgomeryville, Pa.). The peptides were first weighed and dissolved into immobilization buffer (100 mM NaOAc, 150 mM NaCi, 0.1% Tween 20, pH 5.0). A sample of the dissolved peptides was taken for concentration analysis. The chromatography media was measured and washed twice with immobilization buffer. The media and peptide were mixed together and tumbled overnight at room temperature. After the reaction, the supernatant was analyzed for residual peptide and the resultant B19 affinity media was washed with deionized water, 1M NaCl, Tris buffer with 1M NaCl, and twice with PBS. The immobilization data are set forth below:
These parvovirus B19 affinity media were evaluated for the ability of the immobilization ligand to recognize and bind to parvovirus B19 capsid proteins VP1-VP2. Each of the prepared media was evaluated for its ability to deplete a solution of parvovirus B19 capsid proteins as compared to a blank control (media only). […] The capsid protein stock solution was prepared by diluting 30 μl of the purified capsid protein solution (Absorbance at 280 nm=2) with 320 μl of stabilizing buffer. […]
Each sample was analyzed with a standard ELISA for the presence or absence of B19 capsid proteins at ten-fold serial dilution into stabilizing buffer. […]

[2] = biological target: VP1-VP2 (Human parvovirus B19, UniProt P07299); assay: Relative binding ELISA, constant phage against decreasing amounts of VP1-VP2; conditions: among the 18 selected phage isolates
Description: (§1) Based on the ELISA data and the sequence similarities within each library, the 18 isolates (Tables 1-3) were selected and evaluated further with respect to their binding characteristics to VP1-VP2. Relative binding of each isolate was studied by ELISA. Each selected phage isolate, held at a constant amount, was contacted with decreasing amounts per well of VP1-VP2, the amounts coating each dextrin well varying from 2 μl down to 0.001 μl. Bound phage were detected as described before using polyclonal anti-phage antibody. […] Using VP1-VP2 at 1:10 dilution as an arbitrary point, a value for the signal was interpolated, and the relative binding strengths are reflected in Tables 1-3, above.

[3] = biological target: T1, purified, recombinant parvovirus B19 capsid proteins VP1 and VP2 (VP1-VP2) (human parvovirus B19, UniProt P07299 1-781; P07299 1-554); assay: phage ELISA; VP1-VP2 coated on dextrin plates, HRP anti-M13 detection
T1 construct: Surrogate target: partially purified/purified recombinant VP1 + VP2 preparation; Made by methods of US 5,498,413 or WO 91/12269
Description: (§2) From convergent screens of phage display libraries, eluted phage were propagated and 376 phage isolates were selected randomly and individually tested for binding to VP1-VP2 by standard ELISA techniques, using a polyclonal anti-phage antibody to detect bound phage. Briefly, VP1-VP2 (2 μl per well) was coated on dextrin plates, blocked with BSA, and individual phage isolates were added to the wells (50 μl, 10⁹ pfu per well). After washing, bound phage were incubated with the detection anti-phage antibodies (100 μl per well HRP-conjugated anti-M13 antibody in PBS-Tween (Pharmacia Inc.)). Wild type phage, displaying no non-phage peptide, were employed as controls. The bound antibody was detected by adding 100 μl per well of two-component TMB (tetramethylbenzidine; Kirkegaard & Perry).

[4] = biological target: T1, purified, recombinant parvovirus B19 …; assay: phage ELISA, constant phage against decreasing VP1-VP2 coat; normalized signal interpolated at 1:10 dilution of VP1-VP2
Description: as §2, §1

| Molecule | depletion / clearing of B19 capsid proteins from solution [1] | ranking of relative binding strength to VP1-VP2 [2] | ELISA signal [3] | relative binding [4] |
| --- | --- | --- | --- | --- |
| AEGTGDFCWLWPAHSCHDPGPEGGGS (cysteine pairing not given here) [H03-TN09] | able to effectively bind parvovirus B19 capsid proteins and clear them from solution | – | – | – |
| AEGTGDFFCSFWHGGCDDDPGPEGGGS (cysteine pairing not given here) [A01-TN8] | able to effectively bind parvovirus B19 capsid proteins and clear them from solution | two highest-ranking isolates | – | – |
| B1 | – | – | 0.7 | 27 |
| B2 | – | – | 0.9 | 35 |
| B3 | – | – | 0.9 | – |
| B4 | – | – | 0.6 | – |
| B5 | – | – | 0.7 | 26 |
| B6 | – | – | 0.6 | 33 |
| B7 | – | – | 1.6 | 52 |
| B8 | – | – | 1.3 | 30 |
| B9 | – | – | 1.3 | 40 |
| B10 | – | – | 0.7 | 36 |
| B11 | – | – | 0.8 | 85 |
| B12 | – | – | 0.8 | 40 |
| B13 | – | – | 0.7 | – |
| B14 | – | – | 0.5 | 28 |
| B15 | – | – | 0.5 | – |
| B16 | – | – | 0.5 | 31 |
| B17 | – | – | 0.7 | 29 |
